The assay deals with pDC. In words: pDC fraction after FLT3L injection in mice. The class given is in vivo. The settings on record: after 7 days. From the text:
Inbred mice and distribution of dendritic cells: BL/6, SV129 and […] inbred mouse lines were obtained from Jackson Laboratory (Bar Harbor, ME) The distribution of dendritic cells were examined using flow cytometry by using fluorochrome-conjugated monoclonal antibodies. Briefly, cells from spleen and liver were isolated from the mice and stained using fluorophore labeled antibodies. Cells were then fixed using 4% paraformaldehyde and analyzed by flow cytometry.
Further, the amount of pDC fraction was found inducible with injection of FMS-like tyrosine kinase 3 ligand in mice after 7 days (FIG. 2A-2B). Incubation of bone marrow differentiation culture with mouse transferrin for 7 days enhanced CD71 expression and pDC fraction (FIG. 2C-2D).

B1: FMS-like tyrosine kinase 3 ligand: FMS-like tyrosine kinase 3 ligand injected in mice to induce pDC fraction (protein, UniProt P49771 27-235, looked up)
Fms-related tyrosine kinase 3 …: TQDCSFQHSPISSDFAVKIRELSDYLLQDYPVTVASNLQDEELCGGLWRLVLAQRWMERLKTVAGSKMQGLLERVNTEIHFVTKCAFQPPPSCLRFVQTNISRLLQETSEQLVALKPWITRQNFSRCLELQCQPDSSTLPPPWSPRPLEATAPTAPQPPLLLLLLLPVGLLLLAAAWCLHWQRTRRRTPRPGEQVPPVPSPQDLLLVEH
As to B1, the pDC fraction entry is reported as “inducible”. Besides, for the setting “listed as FLT3L”, the pDC fraction entry was “inducible upregulation”.

Values taken from patent publication US12576029B2, “Noncompetitive receptor-targeted vaccine delivery to plasmacytoid dendritic cells” (Washington University, priority 2022, dated 2026).
